Data from article PMC10073219.

Target: Drosophila melanogaster TRPA1, dTRPA1-A isoform (Drosophila melanogaster)
Experiment: cryo-EM structure; purified dTRPA1-A in 25 mM HEPES pH 7.4, 150 mM NaCl, 0.02% GDN; grids prepared at 8 °C; two conformations (state-1, 3.2 Å; state-2, 3.0 Å) from the same sample

In the case of “Drosophila melanogaster TRPA1, dTRPA1-A isoform (natural protein)”, the stoichiometry N is reported as 4.
